Residue numbers refer to the chain shown, from its start.
B1: CAR22-53 (scFv)
scFv: EVQLQQSGPGLVKPSQTLSLTCAISGDSVSSNSAAWNWIRQSPSRGLEWLGRTYYRSKWYSDYAVSVKSRITINPDTSKNQFSLQLNSVTPEDTAVYYCARDPYDFWSGYPDAFDIWGQGTMVTVSSGGGGSGGGGSGGGGSQSALTQPASVSGSPGQSITISCTGTSSDVGGYNYVSWYQQHPGKAPKVIISEVNNRPSGVSHRFSGSKSGNTASLTISGLQAEDEADYFCSSYTSGRTLYVFGTGSKVTVLG
notes: scFv domain of a CAR on JNL cells or T cells; also called CD22-53; hCD22-53
B2: CAR22-58 (scFv)
scFv: EVQLQQSGPGLVNPSQTLSITCAISGDSVSSNSAAWNWIRQSPSRGLEWLGRTFYRSKWYNDYAVSVKGRITISPDTSKNQFSLQLNSVTPEDTAVYYCAGGDYYYGLDVWGQGTTVTVSSGGGGSGGGGSGGGGSQSALTQPASVSGSPGQSITISCTGSSSDVGGYNSVSWYQQHPGKAPKLMIYEVINRPSGVSHRFSGSKSGNTASLTISGLQAEDEADYYCSSYTSSSTYVFGTGTKVTVLG
notes: scFv domain of a CAR expressed on JNL cells; also called CD22-58
B3: CAR 22-57 (scFv)
scFv: EVQLQQSGPGLVKPSQTLSLTCAISGDSVSNNNAAWNWIRQSPSRGLEWLGRTYHRSTWYNDYVGSVKSRITINPDTSKNQFSLQLNSVTPEDTAVYYCARETDYGDYGAFDIWGQGTTVTVSSGGGGSGGGGSGGGGSQSALTQPASVSGSPGQSITISCTGSRNDIGAYESVSWYQQHPGNAPKLIIHGVNNRPSGVFDRFSVSQSGNTASLTISGLQAEDEADYYCSSHTTTSTLYVFGTGTKVTVLG
notes: scFv domain of a CAR expressed on JNL cells; also called CD22-57
B4: CAR123-3 (scFv, V domains shown)
VH: QVQLVQSGAEVKKPGASVKVSCKASGYIFTGYYIHWVRQAPGQGLEWMGWINPNSGGTNYAQKFQGRVTMTRDTSISTAYMELSGLRSDDPAVYYCARDMNILATVPFDIWGQGTLVTVSS
VL: DIQLTQSPSSLSASVGDRVTITCRASQSISSYLNWYQQKPGKAPKLLIYAASSLQSGVPSRFSGSGSGTDFTLTVNSLQPEDFATYYCQQGDSVPLTFGGGTKVEIK
B5: CAR123-4 (scFv, V domains shown)
VH: QVQLQQSGAEVKKSGASVKVSCKASGYTFTDYYMHWLRQAPGQGLEWMGWINPNSGDTNYAQKFQGRVTLTRDTSISTVYMELSRLRSDDTAVYYCARDMNILATVPFDIWGQGTMVTVSS
VL: B4 VL with L4M, V75I, N76S
B6: CAR22-62 (scFv)
scFv: EVQLQQSGPGLVKPSQTLSLTCAISGDSVLSNSDTWNWIRQSPSRGLEWLGRTYHRSTWYDDYASSVRGRVSINVDTSKNQYSLQLNAVTPEDTGVYYCARDRLQDGNSWSDAFDVWGQGTMVTVSSGGGGSGGGGSGGGGSQSALTQPASVSGSPGQSITISCTGTSSDVGGYNYVSWYQQHPGKAPKLMIYDVSNRPSGVSNRFSGSKSGNTASLTISGLQAEDEADYYCSSYTSSSTLYVFGTGTKVTVLG
notes: scFv domain of a CAR expressed on JNL cells; also called CD22-62
B7: CAR22-63 (scFv)
scFv: B6 scFv with D194E, V243I
notes: scFv domain of a CAR expressed on JNL cells; also called CD22-63
B8: CAR22-61 (scFv)
scFv: B6 scFv with E1Q, Q6E, G139S, D194E
notes: scFv domain of a CAR expressed on JNL cells; also called CD22-61
B9: CAR22-60 (scFv)
scFv: B6 scFv with G139S, I162F, V171I, D194E, S209T, V250L
notes: scFv domain of a CAR expressed on JNL cells; also called CD22-60
B10: CAR22-59 (scFv)
scFv: EVQLQQSGPGLVKPSQTLSLTCAISGDSVLSNSDTWNWIRQSPSRGLEWLGRTYHRSTWYDDYASSVRGRVSINVDTSKNQYSLQLNAVTPEDTGVYYCARDRLQDGNSWSDAFDVWGQGTMVTVSSGGGGSGGGGSGGGGSQSALTQPASVSGSPGQSITISCTGSSSDIGGFNYVSWYQQHAGEAPKLMIYEVTNRPSGVSDRFSGSKSDNTASLTISGLQAEDEADYYCSSYASGSPLYVFGTGTKVTVLG
notes: scFv domain of a CAR expressed on JNL cells; also called CD22-59
B11: CAR22-12 (scFv)
scFv: EVQLQQSGPGLVKPSQTLSLTCAISGDSVLSNSDTWNWIRQSPSRGLEWLGRTYHRSTWYDDYASSVRGRVSINVDTSKNQYSLQLNAVTPEDTGVYYCARDRLQDGNSWSDAFDVWGQGTMVTVSSGGGGSGGGGSGGGGSQSALTQPASASGSPGQSVTISCTGTSSDVGGYNYVSWYQQHPGKAPKLMIYDVSNRPSGVSNRFSGSKSGNTASLTISGLQAEDEADYYCSSYTSSSTLYVFGTGTQLTVL
notes: scFv domain of a CAR on T cells or JNL cells; also called CD22 CAR clone 12; hCD22-12
B12: CAR22-65 (scFv)
scFv: B11 scFv with V29M, D102V
notes: also called CD22-65
B13: CAR22-64 (scFv)
scFv: B11 scFv with S19P, D102V, S142P
notes: also called CD22-64

Key:
CD22-FL-Fc [1] = target: T1, CD22-FL-Fc (UniProt P20273 20-687); experiment: NFAT-luciferase activation of CAR JNL cells on plates coated with CD22-FL-Fc, CD22-D567-Fc or CD22-D67
T1 construct: domain: full-length with all 7 external domains; also called CD22 full length-Fc; CD22 full-length with all 7 external domains; not shown: Fc part not described
Protocol: (§1) Briefly the experiments were performed as follows. A lentiviral vector (pELPS) carrying a nucleic acid, encoding a CD22 CAR with a CD22-binding scFv domain was introduced by electroporation into a Jurkat T cell line modified to express luciferase under the control of an NFAT response element (JNL). The cells were cultured and allowed to express the CAR construct. The electroporated cells were applied to a plate coated with the target antigen (CD22). Detection of luciferase signal in the coated plate was indicative of binding activity of the CD22 CAR to its antigen, leading to activation of the T cells and expression of luciferase.
Three different target proteins (CD22-FL-Fc, CD22-D567-Fc, and CD22-D67) were used to coat the tissue culture plates; a negative control (Fc) was also included. A mesothelin binding CAR (Meso-G07) was used as a negative control. […] Domain mapping was performed on CD22 binding domains. Three different forms of antigens were used: CD22 full-length with all 7 external domains, Domain567 (in which domains 1-4 were deleted) and Domain67 (in which domains 1-5 were deleted).

[2] = target: CD123 on target cells (MOLM14, MOLM13, primary B-ALL blasts) (human), P26951; experiment: cell-based or functional assay
Sequence of CD123 on target cells (MOLM14, MOLM13, primary B-ALL blasts) (human), P26951 (P26951 19-378): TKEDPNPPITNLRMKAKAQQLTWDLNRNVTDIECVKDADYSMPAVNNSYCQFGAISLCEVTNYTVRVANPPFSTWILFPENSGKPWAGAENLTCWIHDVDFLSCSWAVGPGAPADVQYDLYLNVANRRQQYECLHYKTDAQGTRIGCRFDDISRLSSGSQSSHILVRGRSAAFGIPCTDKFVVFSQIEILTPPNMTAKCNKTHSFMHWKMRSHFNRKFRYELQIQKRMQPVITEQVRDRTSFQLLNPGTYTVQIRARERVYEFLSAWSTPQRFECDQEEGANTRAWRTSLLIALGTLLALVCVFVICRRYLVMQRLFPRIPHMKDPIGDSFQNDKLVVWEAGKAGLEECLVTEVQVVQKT

CD22-FL-Fc [3] = target: T1, CD22-FL-Fc; experiment: NFAT-luciferase activation of CAR JNL cells on plates coated with CD22 full length-Fc, CD22 D567-Fc or Fc only
Protocol: as §1
CAR constructs containing these scFvs were tested for activity in an NFAT assay as described above. […] The bars in the figure represent, from left to right, CD22 full length-Fc; CD22 D567-Fc; and an Fc only negative control used for coating of the plates.

Binder | binding result (CD22-FL-Fc [1]) | also measured
B1 | binds | –
B2 | binds | –
B3 | binds | –
B4 | – | CD107a degranulation, 2-hr in vitro assay [2]: 80%
B5 | – | CD107a degranulation, 2-hr in vitro assay [2]: 80%
B6 | binds | –
B7 | binds | –
B8 | binds | –
B9 | binds | –
B10 | binds | –
B11 | binds | –
B12 | – | binding result (CD22-FL-Fc [3]): binds
B13 | – | binding result (CD22-FL-Fc [3]): binds
